For test [1], the target named is putative receptor(s) on brush border membrane vesicles (BBMV) prepared from midguts of third instars of the western corn rootworm (Diabrotica virgifera virgifera LeConte) (Diabrotica virgifera virgifera). Put plainly: saturation radioligand binding to western corn rootworm BBMV (0.1 mg/ml), GraphPad Prism fit.
The target is the same in test [2].
Test [3] has the same target. Briefly: homologous competition, 5 nM 125I-Cry3Ba1 on western corn rootworm BBMV (0.1 mg/ml), unlabelled Cry3Ba1 (0-2,500 nM) as competitor.

The values that follow come from patent US20130180016A1.

B1: Cry35Ab1 chymotrypsin core (chymotrypsin-truncated Cry35Ab1 core protein) (protein)
chain: MLDTNKVYEISNHANGLYAATYLSLDDSGVSLMNKNDDDIDDYNLKWFLFPIDDDQYIITSYAANNCKVWNVNNDKINVSTYSSTNSIQKWQIKANGSSYVIQSDNGKVLTAGTGQALGLIRLTDESSNNPNQQWNLTSVQTIQLPQKPIIDTKLKDYPKYSPTGNIDNGTSPQLMGWTLVPCIMVNDPNIDKNTQIKTTPYYILKKYQYWQRAVGSNVALRPHEKKSYTYEWGTEIDQKTTIINTLGFQINIDSGMKFDIPEVGGGTDEIKTQLNEELKIEYSHETKIMEKYQEQSEIDNPTDQSMNSIGFLTITSLELYRYNGSEIRIMQIQTSDNDTYNVTSYPNHQQALL
modifications: 125I-iodinated (Pierce Iodination Beads, Na125I) where used as the labelled ligand; unlabelled where used as competitor
Turning to B1, in test [1], the Kd (in general, a measure of binding affinity in units of concentration) worked out at 11.7 nM and the binding site concentration Bmax was found to be 0.78 pmol/mg BBMV.

B2: mixture of Cry35Ab1+Cry34Ab1 (binary toxin) (protein)
chain 1: B1 chain
chain 2: MSAREVHIDVNNKTGHTLQLEDKTKLDGGRWRTSPTNVANDQIKTFVAESNGFMTGTEGTIYYSINGEAEISLYFDNPFAGSNKYDGHSNKSQYEIITQGGSGNQSHVTYTIQTTSSRYGHKS
modifications: 125I-iodinated where the mixture holds the labelled ligand
As for B2, the specific binding as percent of the total binding in test [2] came to 90%.

B3: Cry3Ba1 trypsin core (protein)
chain: SQDRIRELFSQAESHFRNSMPSFAVSKFEVLFLPTYAQAANTHLLLLKDAQVFGEEWGYSSEDIAEFYQRQLKLTQQYTDHCVNWYNVGLNSLRGSTYDAWVKFNRFRREMTLTVLDLIVLFPFYDVRLYSKGVKTELTRDIFTDPIFTLNALQEYGPTFSSIENSIRKPHLFDYLRGIEFHTRLRPGYSGKDSFNYWSGNYVETRPSIGSNDTITSPFYGDKSIEPIQKLSFDGQKVYRTIANTDIAAFPDGKIYFGVTKVDFSQYDDQKNETSTQTYDSKRYNGYLGAQDSIDQLPPETTDEPLEKAYSHQLNYAECFLMQDRRGTIPFFTWTHRSVDFFNTIDAEKITQLPVVKAYALSSGASIIEGPGFTGGNLLFLKESSNSIAKFKVTLNSAALLQRYRVRIRYASTTNLRLFVQNSNNDFLVIYINKTMNIDGDLTYQTFDFATSNSNMGFSGDTNDFIIGAESFVSNEKIYIDKIEFIPVQ
modifications: 125I-iodinated (Pierce Iodination Beads, Na125I) where used as the labelled ligand; unlabelled where used as competitor
With B3, in test [1], the Kd worked out at 7.35 nM and the binding site concentration Bmax was found to be 0.55 pmol/mg BBMV. Besides, the percent of the total binding displaced in test [3] was more than 20%.
